# The nanobody polyreactivity screen of Harvey et al. (2022)
# Experiment: yeast display, Sf9 membrane polyspecificity reagent, FACS + sequencing; frameworks hold sequencing errors
# Summary of the method: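 In a synthetic yeast display library (Saccharomyces cerevisiae BJ5465), nanobody expression was induced with galactose for 36–48 hours. FACS gates were set low and high (top ~1%) using anti-HA fluorescence for expression and streptavidin fluorescence for binding of the Sf9 membrane reagent. Each polyreactivity label is drawn from the gate of origin.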
row,Sequence,polyreactivity (PSR sort gate)
1,QVQLVESGGGLVQAGGSLRLSCAASGRIFPSYAMGWYRQAPGKERELVAGIRSGGGSTYYADSVKGRFTISRDNAKNTVYLQMNSLKPEDTAVYYCAADPGLYGDYPLAEDYWGQGTQVTVSS,low polyreactivity
2,QVQLVESGGGLVQAGGSLRLSCAASGSTFAKNTMGWYRQAPGKERELVAAISTSGGSTYYADSVKVRFTISRDNAKNTVYLQMNSLKPEDTAVYYCAARAFQYYRAMDYWGQGTQVTVSS,low polyreactivity
3,QVQLVESGGGLVQAGGSLRLSCAASGSIFGSYAMGWYRQAPGKEMELVAAISGSGGRTYYADSVKGRFTISRDNAKNTVYLKMNSLKPEDTAVYYCSAAYPRVTYKYGYYWGQGTQVTVSS,high polyreactivity
4,QVQLVESGGGLVQAGGSLRLSCAASGLTFDYYDMGWYRQAPGKERELVASITWRGSSTYYADSVKGRFTISRDNAKNTVYLQMYSLKPEDTAVYYCAADPQSTIRDYWGQGTQVTVSS,high polyreactivity
5,QVQLVESGGGLVQAGGRLRLSSAASGFIFYYYAMGWYREAPGKERELVAAISTDGGSTFYADSVKGRFTISRDNAKNTVYLQMNSLKPEDTAVYYCNAPYYGWGYWPLEYIRYEYWGQGTQVTVSS,low polyreactivity
6,QVQLVESGGGLVQAGGSLRLSCAASGFIFYYYAMGWYRQAPGKERELVAAISTSGGSTYYADSVKGRFTISRDNAKNTVYLQMNSLKPEDTAVYYCAAKIIGRPRTTDRYDYWGQGTQVTVSS,low polyreactivity
7,QVQLVESGGGLVQAGGSLRLSCAASGFIFVVYDMGWYRQAPGKERELVAGIDTSGADTYYADSVKGRFTISRDNAKNTVYLQMNRLKPEDPAVYYCAAETITDDYYEYDYWGQGTQVTVSS,low polyreactivity
8,QVQLVESGGGLVQAGGSLRLSCAASGSTFYLNAMGWYRQAPWKERELVASITWRGGSTYYADSVKGRFTISRDNAKNTVYLQMNSLKPEDTGVYYCAADATRLRTRYKRDYWGQGSQVTVSS,high polyreactivity
9,QVQLVESGGGLVQAGGSLRLSCAASGRIFLYYAMGWYRQAPGKERELVAAIDSSGGNTNYADSVKGRFTISRDNAKNTVYLQMNSLKPEDTAVYYCAADFYVSADRWPNYDYWGHGTQVTVSS,low polyreactivity
10,QVQLVESGGGLLQAGGSLRLSCAASGRTFYSNAMGWYRQAPGKERELVATISSGGSTNYADSVKGRFTISRDNAKNTVYLQMNSLKPEDTAVYYCAKRTHQFGVSRSYNTYYYWGQGTQVTVSS,low polyreactivity
11,QVQLVESGGGLVQAGGSLRLSCAASGFIFVYYARGWYRQAPGKEMELVAAISRGGSTYYADSVKGRFTISRDNAKNTVYLQMNSLKPEDTAFYYCNKVLPYGREYGYWGQGTQVTVSS,high polyreactivity
12,QVQLQESGGGLVQAGGSLLSCAASGTISYYREMGWYRQAPGKERELVAGIGVGTITYYADSVKGRFTISRDNAKHTVYLQMNSLKPEDTAVYYCAAAYQEYDYHYYYWGQGTQVTVSS,low polyreactivity
13,QVQLVESGGGLVQAGGSLRLSCAASGFIFDIYAMGWYRQAPGKERELVASINWSGGDSTSYADSVKGRFTISRDNAKNTVYLQMNSLKPEDTAVYYCNAEYWSYAGGYPDEYDYWGQGTQVTVSS,low polyreactivity
14,QVQLVESGGGLVQAGGSLRLSCAASGSTFYYYAMGCYRQAPGKERELVASITTGGGSTYYADSVKGRFTISRDNAKNTVYLQLNSLKPEDTAVYYCGAALAYYYWWYDYWGQCTQVTVSS,low polyreactivity
15,QVQLVESGGGLVQAGGSLRLSCAASGSIFDFYAMGWYRQAPGKERELVADISSSDGSTSYADSVKGRFTISRDNAKNTVYLQLNSLKPEDTAVYYCAASQLFGWFPYDYWGQGTQVTVSS,high polyreactivity
16,QVQLVESGGGLVQAGGSLRLSCAASGRNFGRYAMGWYRQAPGKEMELVAAISGSGGTTYYADSVKGRFTISRDNAKNTVYLQMNSLKPEDTAVYYCAARYWVGKVWKYDYWGQGTQVTVSS,high polyreactivity
17,QVQLVESGGGLVQAGGSLRLSCAASGFTFYENAMGWYRQAPGKERELVATISYSGGTTYYADSVKGRFTISRDNAKNTVYLQMNSLKPEDTAVYYCNADYFYYGFPDDYWGQGTQVTVSS,low polyreactivity
18,QVQLVESGGGLVQAGGSLRLTCSASGYTFPRYAMGWYRQAPGKERELVAVITRRGGSTYYADSVKGRFTISRDNAKNTVYLQMNSLKPEDTSVYYCAASDPSNKSSRPGYSYDSDSWGQGTQVTVSS,high polyreactivity
19,QVQLVESGGGLVQAGGSLRLSCAASGSIFGDNAMGWYRQAPGKERELVAAISIVGSTSYADSVKGRFTISRDNAKNTVYLQMNSLKPEDTAVYYCAADTFYSYYDMDYWGQGTQVTVSS,low polyreactivity
20,QVQLVESGGGLVQAGGSLRLSCAASGSTFRYKTMGWYRQAPGKERELVAAISSRGTNTYYADSVKGRFTISRDNAKNTVYLQMNSLKPDDPAVYYCDTGYYVRMDWGQGTQVTVSS,high polyreactivity
21,QDQLVESGGGLVQAGGSLRLRCAASRFYTMGWYRQAPGKERELVAAISWSGGDTYYADSVKGRFTISRDNAKNTVYLQMNSLKPEDTAVYYCAKKTIGSYVHEPYYYWGQGTQVTVSS,low polyreactivity
22,QVQLVESVGGLVQAGGSRRLTSAASGRTFREYAMGWYRQAPWKERELVAAISDSGDSTYYADSVKGRFTISRDNAKNTVYLQMNSLKPEDTAVYYCAADYYDYEYDYWGQGTQVTVSS,low polyreactivity

row,Sequence,polyreactivity (PSR sort gate)
1,QDQHVESGGGLVQAGGSLRLICAASGINFDYYNMGWYRQAPGKERELVATISSGGTSTFYADSVKGRFTISRDNAKNTVYLQMNSLKPDDSAVYYCAKDRPGWVHRRPSGGFDYWGQGTQVTVSS,low polyreactivity
2,QVQLVESGGGLVQAGGSLRLSCAASGFTFYWYAMGWYRKAPGKERELVAAISSSGGRTYYADSVKGRFTISRDNAKNTVYLQMNSLKPEDTAVYYCAAAHTREYYWGQGTQVTVSS,high polyreactivity
3,QVQLVESGGGLVQAGGSLRLIFAASGRIFRPNAMGWYRQAPGKEREFVAAITSSSGTTYYADSVKGRFTISRDNAKNTVYLQMNSLKPEDSAVYYCAAKYTSRSYKYDYWGQGTQVTVSS,high polyreactivity
4,QVQLVESGGLLVQAGGSLRLSCAASGSTFYYNDMGWYRQAPGKEREFVAAISSRGGSTYDADSVKGRFTISRDNAKNTVYLQMNSLKPEDTAVYYCAAKDRHRYDWGQGTQVTVSS,high polyreactivity
5,QVQVVESGGGLVKAGGSLRISCAASGRSFGANVMGWYRQAPGKEREFVAAISSSGGSTYYADSVKGRFTISRDNAKNTVYLQMNSVKPEDTAVYYCAAGGWPYSGGWFFQPNYDYWGQGTQVTVSS,low polyreactivity
6,QVQLVESGGGLVQAGGSLRLSCAACGRTFYFYTMGWYRQAPGKERELVAAITRSGVSTYYADSVKGRFTISRDNAKNTVYLQMNSLKPEDTAVYYCAVRTWGYTQYYYWGQGTQVTVSS,high polyreactivity
7,QVQLVESGGGLVQAGGSLRLSCAASGSIFAAYAKGWYIQAPGKERELVAAISDRGGSTYYADSVKGRFTISRDNSKITVYLQMNSLKPEDTAVYYCATSVFDVRGGPFYYWGQGTQVNVSS,high polyreactivity
8,QAQLQESGGSLVQAGGGMRLSCAASGYISVGSVMGWYRQAPSKERELVASIDQGANTNYADSVKGRFTISRDNAKNNVYLQMNSLKPEDTAVYYCATETTYILNYWGQGTQVTVSS,low polyreactivity
9,QVQLVESGGGLVQAGGSLRLSCAASGRIFRNNAMGGDRQAPGKERELVASITSSGGSTYYADSVKGRFTISRDNAKNTVYLQMNSLKPEDTAVYYCAAYTRSGYGYKLYYYWGQGTQVNVSS,high polyreactivity
10,QVQLVESGGGLVQAGGCLRLSCAASGSTFRYYAMGWYRQAPGKERELVAAIYGGGTTYYADSVKGRFTISRDNAKNTVYLQLNSLKPEDTAVYYCAASILFSYYGRDDYWGQGTQVTVSS,low polyreactivity
11,QVQLVESGGGLVQAGGSLRLSCAASGSIFGYYAMGWSRQAPGKERELVAAISKSGGRTYYADSVKGRFTISRDNAKNTVYLQMNSLKPEDTAVYYCAAVLWYDIYYGGDYWGQGTQVTVSS,high polyreactivity
12,QVQLVESGGGLVQAGGSLRLSCAASGRTLYGYAMGWYRQAPGKERELVAAISESDGSTYADSVKGRFTISRDNAKNTVYLQMNSLKPEDTAVYYCAADYYWYALQDGYYTYGYTYDYWGQGSQVTVSS,low polyreactivity
13,QVQLVESGGGLVQAGGSLRLSCAASGFTLGSNVMGWYRQAPGKERELVAGISQSGGRTFYADSVKGRFTISRDNAKNTVYLQMNSLKPEDTAVYYCNKGASPDDYDYWGQGTQVTVSS,low polyreactivity
14,QVQLVESGGGLVQAGGSLRLSCAASGSIFPHYAMGWYRQAPGKERELVATIRSRSGSTYYADSVKGRFTISRDNAKNTVYLQMNSLKPEDTAVYYCAKDNSLFQRDYWGQGTQVTVSS,low polyreactivity
15,QVQVVESGGGLVQAGGSLRLSCAASGRTFRDNAMGWYRQAPGNERELVAAISRSGGRTYYADSVKGRCTISRDNAKNTVYLQMNSLKPEDTAVYYCAAYYYTAGDSSARYDYWGQGTQVTVSS,high polyreactivity
16,QVQLVESGGGLVQAGGSLRLSCAASGSTFKYNAMGWYRQAPGKERELVATISGTGGSTYYADSVKGRFTISRDNAKNTVYLQMNSLKPEDTAVYYCAARWGRSQLRYYYWGQGTQVTVSS,high polyreactivity
17,QVQLVESGGGLVQAGGSLRLSCAASGRTLNWYAMGWYRQAPGKERELVAVINLSGGRTYYADSVKGRFTISRDNAKNTVYLQMNSLKPEDTAVYYCNAPSVWERSYEKYDYWGQATQVTVSS,low polyreactivity
18,QVQLVESGGGLVQAGGSLRLSCAASGNTFREYTMGWYRQAPGKERELVAGISGSGGRTYYADSVKGRFTISRDNAKNTVYLQMNSLKPEDTAVYYCNARWYYGIGYNYWGQGTQVSVSS,high polyreactivity
19,QVQLVESGGGLVQAGGSLRLSCAASGITFYGYAMGWYRQAPGKERELVAAITRGGSTNYADSVKGRFTISRDNAKNTVYLQMNSLKPEDTAVYYCAAEYSVYWYYRYEYWGQGTQVTVSS,high polyreactivity
20,QVQLVESGGGLDQAGGSLRLISAASGLTLRRYAMGWYRQAPGKERELVASINTGTSTKYADSVKGRFTISRDNAKNTDYLQLNSLKPEDTAFYYCAARPAAQGYGYWGQGTQVTVSS,high polyreactivity
21,QVQLVESGGGLVPAGGSLRLSCAASGRTLYGYAMGWYRQAPGKERELVAAISGGGSTYYADSVKGRFTISRDNAKNTVYLQMNSLKPEDTAVYYCARRANFYVRRYYWGQGSQVTVSS,high polyreactivity
